What all share (experiment): high-throughput RNA pulldown from lysate on Ni-NTA beads; HRP: 50 mM Tris pH 8, 150 mM NaCl, 1 mM beta-mercaptoethanol, 50 ug/ml BSA, 3 ug/ml yeast RNA, 0.5% heparin; ITC and FP: Tris pH 8, 200 mM KCl, 5% glycerol; MST: 50 mM Tris pH 8, 200 mM NaCl, 1 mM DTT, BSA, heparin, 0.05% Tween 20
What all share (details): tags: N-terminal His-eGFP

Series [1] has as its target T1, GFP-9S library array, motif 4 ND N98R (synthetic construct, N98R).
T1 chain: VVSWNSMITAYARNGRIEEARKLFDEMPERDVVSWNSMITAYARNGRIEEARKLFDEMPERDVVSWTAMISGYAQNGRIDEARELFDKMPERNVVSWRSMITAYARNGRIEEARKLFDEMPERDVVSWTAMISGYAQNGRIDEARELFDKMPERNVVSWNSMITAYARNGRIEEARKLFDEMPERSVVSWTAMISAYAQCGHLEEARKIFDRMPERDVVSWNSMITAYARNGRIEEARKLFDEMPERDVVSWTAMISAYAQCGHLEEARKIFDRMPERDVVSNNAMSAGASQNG

The target in series [2] is T2, GFP-9S library array, motif 4 ND N98G;D124G (synthetic construct, N98G;D124G).
T2 chain: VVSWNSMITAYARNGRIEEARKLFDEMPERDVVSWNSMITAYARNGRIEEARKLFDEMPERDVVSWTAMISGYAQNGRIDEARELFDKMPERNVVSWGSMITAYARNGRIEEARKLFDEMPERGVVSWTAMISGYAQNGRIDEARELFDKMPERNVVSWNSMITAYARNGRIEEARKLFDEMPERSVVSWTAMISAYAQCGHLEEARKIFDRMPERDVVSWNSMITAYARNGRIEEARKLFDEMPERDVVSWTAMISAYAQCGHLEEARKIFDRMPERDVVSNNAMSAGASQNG

Series [3] concerns the target T3, GFP-9S library array, motif 4 ND N98A;D124N (synthetic construct, N98A;D124N).
T3 chain: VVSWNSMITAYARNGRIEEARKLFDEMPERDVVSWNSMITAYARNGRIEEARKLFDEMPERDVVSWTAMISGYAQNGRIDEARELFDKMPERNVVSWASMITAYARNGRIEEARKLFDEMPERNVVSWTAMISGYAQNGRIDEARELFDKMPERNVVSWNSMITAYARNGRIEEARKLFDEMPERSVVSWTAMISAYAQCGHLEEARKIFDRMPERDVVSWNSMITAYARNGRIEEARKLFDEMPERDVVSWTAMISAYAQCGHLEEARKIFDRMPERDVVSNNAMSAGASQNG

Series [4] concerns the target T4, GFP-9S library array, motif 4 ND N98W;D124Q (synthetic construct, N98W;D124Q).
T4 chain: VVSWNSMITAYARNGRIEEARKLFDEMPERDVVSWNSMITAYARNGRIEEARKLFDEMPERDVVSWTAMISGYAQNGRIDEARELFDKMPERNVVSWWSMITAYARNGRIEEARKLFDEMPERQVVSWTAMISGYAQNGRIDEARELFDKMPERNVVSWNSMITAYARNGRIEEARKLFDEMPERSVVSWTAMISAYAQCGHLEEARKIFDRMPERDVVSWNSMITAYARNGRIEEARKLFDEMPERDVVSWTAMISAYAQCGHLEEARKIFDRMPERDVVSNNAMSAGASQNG

The target in series [5] is T5, GFP-9S library array, motif 4 ND N98W;D124M (synthetic construct, N98W;D124M).
T5 chain: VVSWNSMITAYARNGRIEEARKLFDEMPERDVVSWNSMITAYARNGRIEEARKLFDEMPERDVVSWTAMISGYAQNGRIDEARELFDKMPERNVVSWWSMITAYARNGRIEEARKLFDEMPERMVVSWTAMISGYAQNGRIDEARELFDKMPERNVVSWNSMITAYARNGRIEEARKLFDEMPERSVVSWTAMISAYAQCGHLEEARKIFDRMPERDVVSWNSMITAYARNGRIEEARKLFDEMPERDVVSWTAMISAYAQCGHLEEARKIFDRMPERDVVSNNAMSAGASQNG

B1: Cy5-rpoA-G (ssRNA)
RNA: AUUAGACGUGA
Broadly, the Kd is the constant that tells how readily two partners part at equilibrium. Low readings indicate higher affinity, high ones lower affinity. As to B1, the Kd in series [1] (label: 5' Cy5) was found to be 253 nM; in series [2] (label: 5' Cy5), 95.2 nM; in series [3] (label: 5' Cy5) it was 123 nM; in series [4] (label: 5' Cy5), 94.4 nM; in series [5] (label: 5' Cy5) it was 102 nM.

B2: IR-rpoA-A (ssRNA)
RNA: AUUAAACGUGA
With B2, the dissociation constant (Kd) in series [1] (label: 5' IRDye 800CW) turned out to be 645 nM; in series [2] (label: 5' IRDye 800CW), 49.9 nM; in series [3] (label: 5' IRDye 800CW) it was 137 nM; in series [4] (label: 5' IRDye 800CW), 224 nM; in series [5] (label: 5' IRDye 800CW), 235 nM.

B3: IR-rpoA-U (ssRNA)
RNA: AUUAUACGUGA
Consider B3, for which the Kd turned out to be 428 nM in series [1] (label: 5' IRDye 800CW); 95.3 nM in series [2] (label: 5' IRDye 800CW); 44 nM in series [3] (label: 5' IRDye 800CW); 195 nM in series [4] (label: 5' IRDye 800CW); 175 nM in series [5] (label: 5' IRDye 800CW).

B4: Cy5-rpoA (ssRNA)
RNA: AUUACACGUGA
Regarding B4, the Kd in series [1] (label: 5' Cy5) came out at 207 nM; in series [2] (label: 5' Cy5), 92 nM; in series [3] (label: 5' Cy5), 66 nM; in series [4] (label: 5' Cy5), 101 nM; in series [5] (label: 5' Cy5), 96.1 nM.

The record behind these values is paper PMC8809517, “Cofactor-independent RNA editing by a synthetic S-type PPR protein”.
